Test results published in paper PMC8041169.

Target: recombinant truncated LvAPN1-His (N-terminal region of Litopenaeus vannamei aminopeptidase N1 with the Cry toxin binding region and the active site of the peptidase-M1 domain) (Litopenaeus vannamei)
Assay: ELISA; 20 ug purified truncated rLvAPN1 coated overnight in 0.1 M carbonate/bicarbonate buffer pH 9.6 at 4 C; blocked with 0.5% BSA in TBS pH 8.0; rPirA^vp, rPirB^vp or rGST at 0-10 uM in TBS incubated at 4 C overnight; detected with rabbit anti-PirA^vp or anti-PirB^vp polyclonal antibody and HRP-conjugated secondary antibody, A450; one-site binding model; apparent Kd

Substance | Kd
recombinant PirA^vp-His toxin subunit of Vibrio parahaemolyticus (VP_AHPND) (natural protein) | 3200 nM
recombinant PirB^vp-GST toxin subunit of Vibrio parahaemolyticus (VP_AHPND) (natural protein) | 500 nM
